# Measurements taken from patent publication US20140087995A1 (published 2014).
# Numbered stars: 1 amine (or outer) side, 2 acyl side, 3 side chain; on linkers, the order of the positions; unused ones are H or OH. Bridge positions count the residues as written; N and C are the ends. * marks the point of attachment. C20 diacid = O=C(O)CCCCCCCCCCCCCCCCCCC(=O)*; γGlu = O=C(O)[C@H](CCC(=O)[*:2])N[*:1]; AEEA = NCCOCCOCC(=O)O
# T1: human amylin receptor (amylin 3(a) receptor: human calcitonin receptor with RAMP-3) (human, UniProt P30988 25-474; O60896 24-148)
# T1 construct: whole, on cells; also called hAmylin-R; hAmylinR
# T1 sequence (looked up) 1: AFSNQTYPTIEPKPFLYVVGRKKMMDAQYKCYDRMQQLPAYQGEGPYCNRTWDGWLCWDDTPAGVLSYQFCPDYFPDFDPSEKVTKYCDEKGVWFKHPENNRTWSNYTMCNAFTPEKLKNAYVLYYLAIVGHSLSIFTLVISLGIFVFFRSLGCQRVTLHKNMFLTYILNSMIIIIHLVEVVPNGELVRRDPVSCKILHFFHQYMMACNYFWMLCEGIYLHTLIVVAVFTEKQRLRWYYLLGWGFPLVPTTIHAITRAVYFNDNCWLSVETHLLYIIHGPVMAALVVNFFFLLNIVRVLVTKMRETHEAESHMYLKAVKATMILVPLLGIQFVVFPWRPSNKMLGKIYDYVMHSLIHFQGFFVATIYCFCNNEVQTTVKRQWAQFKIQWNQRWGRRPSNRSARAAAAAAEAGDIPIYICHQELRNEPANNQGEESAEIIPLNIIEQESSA
# T1 sequence (looked up) 2: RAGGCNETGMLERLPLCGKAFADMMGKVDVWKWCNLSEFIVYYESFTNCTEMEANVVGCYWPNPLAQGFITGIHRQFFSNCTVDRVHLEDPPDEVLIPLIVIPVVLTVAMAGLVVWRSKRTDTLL
# Biological target: T1, human amylin receptor (amylin 3(a) …)
# Assay: SPA displacement of 125I-rat amylin, hAmylin 3(a) receptor membranes
# Description: The binding assay was performed using scintillation proximity assay (SPA) beads (RPNQ0001) from PerkinElmer and cell membranes from the Amylin 3(a)/CRE-luc cells (as described in Assay (II)) were used. Membranes were prepared in the following way; the cells were rinsed with PBS and incubated with Versene for approximately 5 min before harvesting. The cells were flushed with PBS and the cell-suspension was centrifuged for 5 min at 1000 rpm. Cells were homogenized (ultrathurrax) in a buffer containing 20 mM Na-HEPES and 10 mM EDTA (pH 7.4) and centrifuged at 20.000 rpm for 15 min. The resulting pellet was resuspended, homogenized and centrifuged (20.000 rpm, 15 min) in a buffer containing 20 mM Na-HEPES and 0.1 mM EDTA (pH 7.4, buffer 2). The resulting pellet was resuspended in buffer 2 and protein concentration was measured (BCA protein Assay, Pierce). The homogenate was kept cold during the whole procedure. The membranes were kept at −80° C. until use. The assay was performed in a 384 well Optiplate (PerkinElmer) in a total volume of 40 ul. Membranes were mixed with SPA beads. Final concentration of membranes 35 ng/μL final and SPA beads was 0.05 mg/well. Test-compounds were dissolved in DMSO and further diluted in assay buffer (50 mM Hepes, pH 7.4, 1 mM CaCl2, 5 mM MgCl₂, 0.1% OA and 0.02% Tween20). […] The final mixture was incubated with shaking at 400 rpm for 120 min at 25° C. prior to centrifugation (1500 rpm, 10 min). Samples were analyzed on TopCounter™ (Packard). The IC₅₀ was calculated using (one site binding competition analysis) GraphPad Prism5 as a measure of receptor affinity.
row,Binder,IC50 [pM]
1,"KCNTATCATQRLAEFLRHSSPNFGAIPSSTNVGSNTY (C20 diacid-gGlu-2xOEG on alpha amino group of N-terminal Lys 1; Cys2-Cys7 disulfide; C-terminal amide, also called 19; compound 19)",556
2,"{C20 diacid-γGlu}-KCNTATCATQRLAEFLRHSSPNFGPILPPTNVGSNTY-NH2 (disulfide 2-7; SMILES CC[C@H](C)[C@H](NC(=O)[C@@H]1CCCN1C(=O)CNC(=O)[C@H](Cc1ccccc1)NC(=O)[C@H](CC(N)=O)NC(=O)[C@@H]1CCCN1C(=O)[C@H](CO)NC(=O)[C@H](CO)NC(=O)[C@H](Cc1c[nH]cn1)NC(=O)[C@H](CCCNC(=N)N)NC(=O)[C@H](CC(C)C)NC(=O)[C@H](Cc1ccccc1)NC(=O)[C@H](CCC(=O)O)NC(=O)[C@H](C)NC(=O)[C@H](CC(C)C)NC(=O)[C@H](CCCNC(=N)N)NC(=O)[C@H](CCC(N)=O)NC(=O)[C@@H](NC(=O)[C@H](C)NC(=O)[C@@H]1CSSC[C@H](NC(=O)[C@H](CCCCN)NC(=O)CC[C@H](NC(=O)CCCCCCCCCCCCCCCCCCC(=O)O)C(=O)O)C(=O)N[C@@H](CC(N)=O)C(=O)N[C@@H]([C@@H](C)O)C(=O)N[C@@H](C)C(=O)N[C@@H]([C@@H](C)O)C(=O)N1)[C@@H](C)O)C(=O)N[C@@H](CC(C)C)C(=O)N1CCC[C@H]1C(=O)N1CCC[C@H]1C(=O)N[C@H](C(=O)N[C@@H](CC(N)=O)C(=O)N[C@H](C(=O)NCC(=O)N[C@@H](CO)C(=O)N[C@@H](CC(N)=O)C(=O)N[C@H](C(=O)N[C@@H](Cc1ccc(O)cc1)C(N)=O)[C@@H](C)O)C(C)C)[C@@H](C)O, also called compound 6)",996
3,"{C20 diacid-γGlu}-KCNTATCATQRLANFLRHSSPNFGAIPSSTPVGSETY-NH2 (disulfide 2-7; SMILES CC[C@H](C)[C@H](NC(=O)[C@H](C)NC(=O)CNC(=O)[C@H](Cc1ccccc1)NC(=O)[C@H](CC(N)=O)NC(=O)[C@@H]1CCCN1C(=O)[C@H](CO)NC(=O)[C@H](CO)NC(=O)[C@H](Cc1c[nH]cn1)NC(=O)[C@H](CCCNC(=N)N)NC(=O)[C@H](CC(C)C)NC(=O)[C@H](Cc1ccccc1)NC(=O)[C@H](CC(N)=O)NC(=O)[C@H](C)NC(=O)[C@H](CC(C)C)NC(=O)[C@H](CCCNC(=N)N)NC(=O)[C@H](CCC(N)=O)NC(=O)[C@@H](NC(=O)[C@H](C)NC(=O)[C@@H]1CSSC[C@H](NC(=O)[C@H](CCCCN)NC(=O)CC[C@H](NC(=O)CCCCCCCCCCCCCCCCCCC(=O)O)C(=O)O)C(=O)N[C@@H](CC(N)=O)C(=O)N[C@@H]([C@@H](C)O)C(=O)N[C@@H](C)C(=O)N[C@@H]([C@@H](C)O)C(=O)N1)[C@@H](C)O)C(=O)N1CCC[C@H]1C(=O)N[C@@H](CO)C(=O)N[C@@H](CO)C(=O)N[C@H](C(=O)N1CCC[C@H]1C(=O)N[C@H](C(=O)NCC(=O)N[C@@H](CO)C(=O)N[C@@H](CCC(=O)O)C(=O)N[C@H](C(=O)N[C@@H](Cc1ccc(O)cc1)C(N)=O)[C@@H](C)O)C(C)C)[C@@H](C)O, also called 28; compound 28)",610
4,"{C20 diacid-γGlu}-KCNTATCATQRLAEFLRHSSPNFGPILPPTNVGSNTP-NH2 (disulfide 2-7; SMILES CC[C@H](C)[C@H](NC(=O)[C@@H]1CCCN1C(=O)CNC(=O)[C@H](Cc1ccccc1)NC(=O)[C@H](CC(N)=O)NC(=O)[C@@H]1CCCN1C(=O)[C@H](CO)NC(=O)[C@H](CO)NC(=O)[C@H](Cc1c[nH]cn1)NC(=O)[C@H](CCCNC(=N)N)NC(=O)[C@H](CC(C)C)NC(=O)[C@H](Cc1ccccc1)NC(=O)[C@H](CCC(=O)O)NC(=O)[C@H](C)NC(=O)[C@H](CC(C)C)NC(=O)[C@H](CCCNC(=N)N)NC(=O)[C@H](CCC(N)=O)NC(=O)[C@@H](NC(=O)[C@H](C)NC(=O)[C@@H]1CSSC[C@H](NC(=O)[C@H](CCCCN)NC(=O)CC[C@H](NC(=O)CCCCCCCCCCCCCCCCCCC(=O)O)C(=O)O)C(=O)N[C@@H](CC(N)=O)C(=O)N[C@@H]([C@@H](C)O)C(=O)N[C@@H](C)C(=O)N[C@@H]([C@@H](C)O)C(=O)N1)[C@@H](C)O)C(=O)N[C@@H](CC(C)C)C(=O)N1CCC[C@H]1C(=O)N1CCC[C@H]1C(=O)N[C@H](C(=O)N[C@@H](CC(N)=O)C(=O)N[C@H](C(=O)NCC(=O)N[C@@H](CO)C(=O)N[C@@H](CC(N)=O)C(=O)N[C@H](C(=O)N1CCC[C@H]1C(N)=O)[C@@H](C)O)C(C)C)[C@@H](C)O, also called compound 4)",321
5,"{C20 diacid-γGlu}-KCNTATCATQRLADFLRHSSPNFGAIPSSTNVGSNTP-NH2 (disulfide 2-7; SMILES CC[C@H](C)[C@H](NC(=O)[C@H](C)NC(=O)CNC(=O)[C@H](Cc1ccccc1)NC(=O)[C@H](CC(N)=O)NC(=O)[C@@H]1CCCN1C(=O)[C@H](CO)NC(=O)[C@H](CO)NC(=O)[C@H](Cc1c[nH]cn1)NC(=O)[C@H](CCCNC(=N)N)NC(=O)[C@H](CC(C)C)NC(=O)[C@H](Cc1ccccc1)NC(=O)[C@H](CC(=O)O)NC(=O)[C@H](C)NC(=O)[C@H](CC(C)C)NC(=O)[C@H](CCCNC(=N)N)NC(=O)[C@H](CCC(N)=O)NC(=O)[C@@H](NC(=O)[C@H](C)NC(=O)[C@@H]1CSSC[C@H](NC(=O)[C@H](CCCCN)NC(=O)CC[C@H](NC(=O)CCCCCCCCCCCCCCCCCCC(=O)O)C(=O)O)C(=O)N[C@@H](CC(N)=O)C(=O)N[C@@H]([C@@H](C)O)C(=O)N[C@@H](C)C(=O)N[C@@H]([C@@H](C)O)C(=O)N1)[C@@H](C)O)C(=O)N1CCC[C@H]1C(=O)N[C@@H](CO)C(=O)N[C@@H](CO)C(=O)N[C@H](C(=O)N[C@@H](CC(N)=O)C(=O)N[C@H](C(=O)NCC(=O)N[C@@H](CO)C(=O)N[C@@H](CC(N)=O)C(=O)N[C@H](C(=O)N1CCC[C@H]1C(N)=O)[C@@H](C)O)C(C)C)[C@@H](C)O, also called 10; compound 10)",82
6,"KCNTATCATQRLANFLRHSSPNFGAIPSSTNVGSETY (C20 diacid-gGlu on alpha amino group of N-terminal Lys 1; Cys2-Cys7 disulfide; C-terminal amide, also called 23; compound 23) [N^α1-[(4S)-4-carboxy-4-(19-carboxynonadecanoylamino)butanoyl]-[Arg17,Pro21,Pro27,Glu35]-h-amylin]",871
7,"KCNTATCATQRLANFLRHSSPNFGAIPSSTNVGRNTY (C20 diacid-gGlu on alpha amino group of N-terminal Lys 1; Cys2-Cys7 disulfide; C-terminal amide, also called 39; compound 39) [N^α1-[(4S)-4-carboxy-4-(19-carboxynonadecanoylamino)butanoyl]-[Arg17,Pro21,Pro27,Arg34]-h-amylin]",665
8,"KCNTATCATQRLANFLRHSSPNFGAIPSSTNVGHNTY (C20 diacid-gGlu on alpha amino group of N-terminal Lys 1; Cys2-Cys7 disulfide; C-terminal amide, also called 40; compound 40) [N^α1-[(4S)-4-carboxy-4-(19-carboxynonadecanoylamino)butanoyl]-[Arg17,Pro21,Pro27,His34]-h-amylin]",549
9,"{C20 diacid-γGlu-AEEA-AEEA}-KCNTATCATQRLAEFLRHSSPNFGAIPSSTNVGSNTP-NH2 (disulfide 2-7; SMILES CC[C@H](C)[C@H](NC(=O)[C@H](C)NC(=O)CNC(=O)[C@H](Cc1ccccc1)NC(=O)[C@H](CC(N)=O)NC(=O)[C@@H]1CCCN1C(=O)[C@H](CO)NC(=O)[C@H](CO)NC(=O)[C@H](Cc1c[nH]cn1)NC(=O)[C@H](CCCNC(=N)N)NC(=O)[C@H](CC(C)C)NC(=O)[C@H](Cc1ccccc1)NC(=O)[C@H](CCC(=O)O)NC(=O)[C@H](C)NC(=O)[C@H](CC(C)C)NC(=O)[C@H](CCCNC(=N)N)NC(=O)[C@H](CCC(N)=O)NC(=O)[C@@H](NC(=O)[C@H](C)NC(=O)[C@@H]1CSSC[C@H](NC(=O)[C@H](CCCCN)NC(=O)COCCOCCNC(=O)COCCOCCNC(=O)CC[C@H](NC(=O)CCCCCCCCCCCCCCCCCCC(=O)O)C(=O)O)C(=O)N[C@@H](CC(N)=O)C(=O)N[C@@H]([C@@H](C)O)C(=O)N[C@@H](C)C(=O)N[C@@H]([C@@H](C)O)C(=O)N1)[C@@H](C)O)C(=O)N1CCC[C@H]1C(=O)N[C@@H](CO)C(=O)N[C@@H](CO)C(=O)N[C@H](C(=O)N[C@@H](CC(N)=O)C(=O)N[C@H](C(=O)NCC(=O)N[C@@H](CO)C(=O)N[C@@H](CC(N)=O)C(=O)N[C@H](C(=O)N1CCC[C@H]1C(N)=O)[C@@H](C)O)C(C)C)[C@@H](C)O, also called 20; compound 20)",217
